Values of other authors, collected in paper PMC9713128.

Target: HBcAg (Hepatitis B virus) (UniProt P03149)
Assay: solution binding assay

Sequence of UniProt P03149 (P03149 whole entry): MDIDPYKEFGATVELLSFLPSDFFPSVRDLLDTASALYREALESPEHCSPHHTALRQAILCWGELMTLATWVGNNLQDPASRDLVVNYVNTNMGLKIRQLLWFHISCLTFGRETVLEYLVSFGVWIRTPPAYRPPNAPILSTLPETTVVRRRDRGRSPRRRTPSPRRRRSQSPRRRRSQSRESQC

cyclic peptide C-WPFWGPW-C
Kd: < 25 nM

cyclic peptide C-WSFFSNI-C
Kd: < 25 nM
